Assay results as given in the RNAGym collection of RNA variant scans (doi:10.7554/elife.80360).

B1: HDV Ribozyme (parent)
chain: GGCCGGCAUGGUCCCAGCCUCCUCGCUGGCGCCGGCUGGGCAACAUUCCGAGGGGACCGUCCCCUCGGUAAUGGCGAAUGGGACCCA

Variants of: B1
Test: self-cleavage, relative activity (ratio to wild type); higher = more cleavage; co-transcriptional

Compared with GGCCGGCAUUGUCCCAGCCUCCUCGCUGGCGCCGGCUGGGCAACAUUCCGAGGGGACCGUUCCCUCGGUAAUGGCGAAUGGGACCCA, GGCCGGCAUGAUCCAAGCCUCCUCGCUGGCGCCGGCUGGGCAACAUUCCGAGGGGACCGUCCCCUCGGUAAUGGCGAAUGGGACCCA is lower in self-cleavage: 0.684 for the first, 0.108 for the second.

Going from GGCCGGCAUUGUCCCAGCCUCCUCGCUGGCGCCGGCUGGGCAACAUUCCGAGGGGACGGUCCCCUCGGUAAUGGCGAAUGGGACCCA to GGCCGGCAUGAUCCCAGCCUCCUCGCUGGCGCCGGCUGGGCAACAUUCCGAGGGGCCCGUCCCCUCGGUAAUGGCGAAUGGGACCCA, the self-cleavage falls from 0.793 to 0.298.

Going from GGCCGGCAUUGUCCCAGCCUCCUCGCUGGCGCCGGCUUGGCAACAUUCCGAGGGGACCGUCCCCUCGGUAAUGGCGAAUGGGACCCA to GGCCGGCAUGAUCCCAGCCUCCUCGCUGGCGGCGGCUGGGCAACAUUCCGAGGGGACCGUCCCCUCGGUAAUGGCGAAUGGGACCCA, the self-cleavage rises from 0.0625 to 0.0683.

Going from GGCCGGCAUGAUCCCAGCCUCCUCGCUGGCGUCGGCUGGGCAACAUUCCGAGGGGACCGUCCCCUCGGUAAUGGCGAAUGGGACCCA to GGCCGGCAUGAUCCCAGCCUCGUCGCUGGCGCCGGCUGGGCAACAUUCCGAGGGGACCGUCCCCUCGGUAAUGGCGAAUGGGACCCA, the self-cleavage falls from 0.133 to 0.0193.

Compared with GGCCGGCAUGAUCCCAGCCUCCUCGCUGGUGCCGGCUGGGCAACAUUCCGAGGGGACCGUCCCCUCGGUAAUGGCGAAUGGGACCCA, GGCCGGCAUGAUCCCAGCCUCCUCGCUGGCGCCGGCUGGGCAACAUUCCGAGGGGACCGUCCCCUCGGUAAUGGCGAAUGGGACCCC is higher in self-cleavage: 0.0645 for the first, 0.521 for the second.

Going from GGCCGGCAUUGUCCCAGCCUCCUCGCUGGCGCCGGCUGGGCAACAUUCCGAGGGGACCGGCCCCUCGGUAAUGGCGAAUGGGACCCA to GGCCGGCAUUGUCCCAGCCUCCUCGCUGGCGCCGGCUGGGCAACAUUCCGAGGGGACCGCCCCCUCGGUAAUGGCGAAUGGGACCCA, the self-cleavage rises from 0.724 to 0.767.

First: GGCCGGCAUGAUCCCUGCCUCCUCGCUGGCGCCGGCUGGGCAACAUUCCGAGGGGACCGUCCCCUCGGUAAUGGCGAAUGGGACCCA
Second: GGCCGGCAUGAUCCCAGCCUCCUCGCUGGCGCCGGCUGGGCGACAUUCCGAGGGGACCGUCCCCUCGGUAAUGGCGAAUGGGACCCA
The self-cleavage of the first is higher: 0.723 for the first, 0.0692 for the second.

First: GGCCGGCAUGAUCCCAGCCUCCUCGCUGGCGCCGGCUGGGCCACAUUCCGAGGGGACCGUCCCCUCGGUAAUGGCGAAUGGGACCCA
Second: GGCCGGCAUUGUCCCAGCCUCCUCGCUGGCGCCGGCAGGGCAACAUUCCGAGGGGACCGUCCCCUCGGUAAUGGCGAAUGGGACCCA
The self-cleavage of the first is higher: 0.101 for the first, 0.058 for the second.

Compared with GGCCGGCAUUGUCCCAGCCUCCUCGCUGGCGCCGGCUGGGCAACAAUCCGAGGGGACCGUCCCCUCGGUAAUGGCGAAUGGGACCCA, GGCCGGCAUGAUCCCAGCCUCCUCGCUGGCGCCGGCUGGGCAACAUUCCGCGGGGACCGUCCCCUCGGUAAUGGCGAAUGGGACCCA is higher in self-cleavage: 0.489 for the first, 0.665 for the second.

First: GGCCGGCAUGAUCCCAGCCUCCUCGCUGGCGCCGGCUGGGCAACAUUCCGAGGGGACCGUCCCCUCGGUGAUGGCGAAUGGGACCCA
Second: GGCCGGCAUGAUCCCAGCCUCCUCGCUGGCGCCGGCUGGGCAACAUUCCGAGGGGACCGUCCCCUCGGUUAUGGCGAAUGGGACCCA
The self-cleavage of the first is higher: 0.365 for the first, 0.246 for the second.

Going from GGCCGGCAUUGUCCCAGCCUCCUCGCUGGCGCCGGCUGGACAACAUUCCGAGGGGACCGUCCCCUCGGUAAUGGCGAAUGGGACCCA to GGCCGGCAUUGUCCCAGCCUCCUCGCUGGCGCCGGCUGGGCAACAUUCCGAGGGGACCGUCCCCUCGGUAAUGGCGAAUGGGACCAA, the self-cleavage falls from 0.745 to 0.712.

First: GGCCGGCAUUGUCCCAGCCUCCUCGCUGGCGCCGGCUGGGCAACAUUCCGAGGGGACCGUCCCCUCGGUAAUUGCGAAUGGGACCCA
Second: GGCCGGCAUUGUCCCAGCCUCCUCGCUGGCGCCGGCUGGGCAACAUUCCGAGGGGACCGUCCCCUCGGUAAUCGCGAAUGGGACCCA
The self-cleavage of the first is lower: 0.0639 for the first, 0.0831 for the second.

Going from GGCCGGCAUUGUCCCACCCUCCUCGCUGGCGCCGGCUGGGCAACAUUCCGAGGGGACCGUCCCCUCGGUAAUGGCGAAUGGGACCCA to GGCCGGCAUUGUCCCAGCCUCCUCGCUGGCGCCGGCUGGGCAACAUUCCGAGGGGACCGUCCCCUCGGUAAUGGCGAAUGGGACUCA, the self-cleavage rises from 0.359 to 0.946.

First: GGCCGGCAUUGUCCCAGCCUCCUCGCUGGCGCCGGCUGGGCAACAUUCCGAGGGGACCGUCCCCUCGGUAAUGGCGAAUGGUACCCA
Second: GGCCGGCAUUGUCCCAGCCUCCUCGCUGGCGCCGGCUGGGCAACAUUCCGAGGGGACCGUCCCCUCGGUAAUGGCGAAUGGCACCCA
The self-cleavage of the first is higher: 0.248 for the first, 0.089 for the second.

First: GGCCGGCAUUGUCCCAGCCUCCUCGCUGGCGCCGGCUGGGCAACAUUCCUAGGGGACCGUCCCCUCGGUAAUGGCGAAUGGGACCCA
Second: GGCCGGCAUGAUCCCAGCCUCCUCGCUGGCGCCGGCUGGGCAGCAUUCCGAGGGGACCGUCCCCUCGGUAAUGGCGAAUGGGACCCA
The self-cleavage of the first is higher: 0.796 for the first, 0.0791 for the second.

Compared with GGCCGGCAUUGUCCCAGCCUCCUCGCUGGCGCCGGCUGGGCAACAUUCCGAGGCGACCGUCCCCUCGGUAAUGGCGAAUGGGACCCA, GGCCGGCAUUGUCCCAGCCUCCUCGCUGGCGCCGGCUGGGCAACAUUCCGAGGGGACCGUCCCCUCGGUAAAGGCGAAUGGGACCCA is lower in self-cleavage: 0.831 for the first, 0.277 for the second.
